Laboratory results as given in US11497796B2, “Agents directed against a cis RGMa/neogenin interaction or lipid rafts and use of the same in methods of treatment” (UNIVERSITY HEALTH NETWORK, priority 2013, dated 2022).

Assays:
retinal whole mounts = assay: Oxygen Glucose Deprivation (OGD) in retinal whole mounts, PI staining; type: cell-based; conditions: added to the medium, OGD 1 hour, 24 hours
Method: Specifically, retinal whole mounts were subjected to OGD for 1 hour. After ischemia, whole mounts were incubated for 24 hours and dead cells were identified using propidium iodide (PI) staining.
To determine whether Neogenin required lipid raft association to induce cell death, OGD was performed on retinal whole mounts in the presence of 4Ig, which as described above, prevented Neogenin localization into lipid rafts.

retinal cells = assay: Ocular ischemia by ligation of the main optic artery, cell survival; type: in vivo, rat; conditions: injection into the eye after ligation
Method: (A,B,C) Schematic representation of the experiments performed on the eye. A) the main artery was ligated to stop blood flow for 15 min. B) RGMa was injected into the eye vitreous just after ligation. C) 2 weeks after ligation, retrograde labeling was performed to assess cell survival. D) Representation of the retinal areas used for quantification. E) Quantification of cell survival performed on 8 rats for each condition.
To extend this study, whether RGMa injection into the eye affected cell survival after ligation of the main optic artery to induce ocular ischemia was tested.

B1: RGMa: Repulsive Guidance Molecule A added to the medium or injected into the eye (protein)
chain: PHLRTFTDTFQTCKVQGAWPLIDNNYLNVQVTNTPVLPGSSATATSKLTIIFKSFQECVEQKVYQAEMDELPAAFADGSKNGGDKHGANSLKITEKVSGQHIEIQAKYIGTTIVVRQVGRYLTFAVRMPEEVVNAVEDRDSQGLYLCLRGCPLNQQIDFQTFRLAQAAEGRARRKGPSLPAPPEAFTYESATAKCREKLPVEDLYFQSCVFDLLTTGDVNFMLAAYYAFEDVKMLHSNKDKLHLYERTRALAPGN
cell survival after OGD (retinal whole mounts): promoted cell survival
enhancement of survival compared to controls (retinal cells): up to 2 times
